How the values were obtained:
Experiment in all cases: Single-well 4-spot assay for multiple peptide-protein interactions
Type in all cases: binding
[1] = molecular target: T1, IkBa-24pp (SEQ ID NO: 1) (Homo sapiens, UniProt P25963); settings: for ECL signal, spot 1 IkBa-24pp: 4-spot plate
T1 construct: two phosphoserines in the DSGLDS motif (chemical modification); purchased New England Peptide, Fitchburg Mass; host or cells: chemical synthesis
Text: Four phosphopeptides and their cognate binding proteins (Table 14) were selected for an integrated assay of multiple peptide-protein interaction in 4-spot Multi-Array plates. The IkBa-24pp peptide and its binding protein, βTRCP, are described in Example 10. The remaining peptides are derived from the carboxyl terminus of the EGF receptor. These phosphotyrosine containing peptides are recognized by different adaptor or effecter proteins of the receptor tyrosine kinase signaling pathway.
These four peptides were coupled to BSA carrier protein through cystine residue. After purification on PD-10 gel filtration columns, the peptide-BSA conjugates were then deposited on the assay domains of a 4-spot multi-array IPR plate (i.e., in one of the four exposed regions of working electrode defined by the dielectric layer) with an automated micro-dispensing system (Bio-Dot Dispenser, Bio-Dot, Irvine Calif.). Typically about 120 fmole of peptide:BSA conjugate in 0.25 μl was deposited on each spot of a 4-spot multi-array IPR plate. These plates are dried then used or stored under desiccated conditions. A few hours prior to usage the plates were rehydrated and blocked with 3% BSA in PBS. EST clones encoding βTRCP1 (3491843), βTRCP2 (4237375), mCBP (3872466) Grb2 (4398016) and PLCγ (4419252) (Incyte, Palo Alto, Calif.), were isolated using a QIA-prep column (QIAGEN, Los Angeles, Calif.) and used to program protein expression in a Quick coupled SP6 TnT reaction supplemented with Transcend biotin-tRNA label following the manufactures protocol (Promega, Madison Wis.). The in vitro translated and biotin-labeled proteins were then assayed in the 4-spot multi-array IPR plates under conditions described in Example 10. […] By contrast spots 2–4 in the same wells gave low ECL signals. Thus, in this assay format, each peptide not only serves as the capture agent for assaying specific interaction with its binding protein, but also at the same time serves as a control for other peptide-protein interaction to be determined in the same well. […]

[2] = molecular target: T2, EGFR-pY1148 (SEQ ID NO: 9) (Homo sapiens, UniProt P00533); settings: 4-spot plate
T2 construct: phosphotyrosine at Tyr1148 (chemical modification); purchased New England Peptide, Fitchburg Mass; host or cells: chemical synthesis
Text: (§1) Four phosphopeptides and their cognate binding proteins (Table 14) were selected for an integrated assay of multiple peptide-protein interaction in 4-spot Multi-Array plates. The IkBa-24pp peptide and its binding protein, βTRCP, are described in Example 10. […] These phosphotyrosine containing peptides are recognized by different adaptor or effecter proteins of the receptor tyrosine kinase signaling pathway.
(§2) These four peptides were coupled to BSA carrier protein through cystine residue. After purification on PD-10 gel filtration columns, the peptide-BSA conjugates were then deposited on the assay domains of a 4-spot multi-array IPR plate (i.e., in one of the four exposed regions of working electrode defined by the dielectric layer) with an automated micro-dispensing system (Bio-Dot Dispenser, Bio-Dot, Irvine Calif.). […] These plates are dried then used or stored under desiccated conditions. A few hours prior to usage the plates were rehydrated and blocked with 3% BSA in PBS. […] The in vitro translated and biotin-labeled proteins were then assayed in the 4-spot multi-array IPR plates under conditions described in Example 10.

[3] = molecular target: T3, EGFR-pY1068 (SEQ ID NO: 7) (Homo sapiens, UniProt P00533); settings: 4-spot plate
T3 construct: phosphotyrosine at Tyr1068 (chemical modification); purchased New England Peptide, Fitchburg Mass; host or cells: chemical synthesis
Text: as §1, §2

T1 sequence (P25963 with tags, fused parts or gaps limits assumed): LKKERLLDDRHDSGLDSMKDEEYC

Substance | ECL signal, spot 1 IkBa-24pp [1] | ECL signal, spot 2 EGFR-pY1148 [2] | ECL signal, spot 3 EGFR-pY1068 [3] | fold higher ECL signal from spot 1 than with TnT mixtures containing no exogenous DNA ([1]; spot 1 (IkBa-24pp-BSA conjugate)) [fold]
3872466: IMAGE clone protein: mCBP [compound 3872466] | 446 | 278 | 126 | 
3491843: IMAGE clone protein: βTRCP1 [compound 3491843] | 2466 | 36 | 24 | 100
